Test results published in the supplement of paper PMC10567573.

B1: FAM50A (parent)
chain: KKREKQREQMEQMKQRIAEENIMK
B2: RTN2 (parent)
chain: SERPLEDLRLRLDHLGWVARGTGS

Variants of: B1
Experiment: protein stability index of a GFP-peptide fusion (GPS, HEK-293T) (PSI 1-6); higher = more stable
Details: c terminus: a fixed tail appended
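Note: lentivirally expressed fusions sorted by FACS into six bins by GFP to DsRed ratio, PSI derived from sequencing read proportions per bin multiplied by bin number.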

| Variant | protein stability index |
| --- | --- |
| Q9D | 4.96 |
| Q9S | 4.74 |
| Q9A | 4.86 |
| Q9V | 4.67 |
| Q9R | 4.56 |
| Q9E | 5.18 |
| Q9W | 4.13 |
| Q9K | 4.93 |
| Q9P | 4.89 |
| Q9G | 4.75 |
| Q9I | 4.01 |
| Q9L | 4.92 |
| Q9Y | 4.51 |
| Q9N | 4.8 |
| Q9H | 4.68 |
| Q9F | 4.16 |
| Q9C | 4.73 |
| Q9M | 4.4 |
| Q9T | 4.72 |
| Q12A | 4.44 |
| Q12M | 4.27 |
| Q12H | 4.58 |
| Q12P | 4.9 |
| Q12Y | 4.55 |

| Variant | protein stability index |
| --- | --- |
| Q12K | 4.57 |
| Q12G | 4.66 |
| Q12R | 4.39 |
| Q12C | 5.05 |
| Q12T | 4.7 |
| Q12F | 3.71 |
| Q12N | 5.04 |
| Q12E | 5.28 |
| Q12I | 4.63 |
| Q12L | 4.55 |
| Q12V | 5.07 |
| Q12S | 4.84 |
| Q12W | 4.45 |
| Q12D | 5.02 |
| Q6G | 4.62 |
| Q6Y | 4.14 |
| Q6I | 4.67 |
| Q6E | 4.81 |
| Q6C | 4.17 |
| Q6T | 4.9 |
| Q6F | 4.13 |
| Q6K | 4.67 |
| Q6P | 4.57 |
| Q6D | 5.06 |

| Variant | protein stability index |
| --- | --- |
| Q6W | 3.96 |
| Q6N | 5.3 |
| Q6H | 4.7 |
| Q6L | 4.13 |
| Q6V | 4.49 |
| Q6M | 4.62 |
| Q6S | 4.96 |
| Q6A | 4.48 |
| E8F | 4.29 |
| E8I | 4.51 |
| E8D | 4.63 |
| E8N | 4.44 |
| E8Q | 4.82 |
| E8A | 4.96 |
| E8K | 4.48 |
| E8C | 4.15 |
| E8V | 4.37 |
| E8H | 3.74 |
| E8S | 4.41 |
| E8P | 4.89 |
| E8L | 4.57 |
| E8T | 4.31 |
| E8R | 4.71 |
| E8G | 4.85 |

| Variant | protein stability index |
| --- | --- |
| E8W | 3.68 |
| E8Y | 4.23 |
| E8M | 4.58 |
| K14G | 5.02 |
| K14H | 5.01 |
| K14V | 4.63 |
| K14P | 5.67 |
| K14W | 3.9 |
| K14L | 4.11 |
| K14F | 4.32 |
| K14I | 4.05 |
| K14R | 4.59 |
| K14T | 4.3 |
| K14C | 4.57 |
| K14Q | 5.15 |
| K14S | 5.06 |
| K14M | 4.53 |
| K14E | 5.01 |
| K14N | 4.86 |
| K14D | 5.02 |
| K14A | 5.21 |
| K14Y | 4.39 |
| K2N | 4.94 |
| K2Y | 4.22 |

| Variant | protein stability index |
| --- | --- |
| K2F | 4.45 |
| K2M | 4.64 |
| K2Q | 4.75 |
| K2D | 4.34 |
| K2S | 5.01 |
| K2E | 5.04 |
| K2C | 4.76 |
| K2G | 4.55 |
| K2I | 4.63 |
| K2L | 3.67 |
| K2T | 5.07 |
| K2R | 5.03 |
| K2W | 4.58 |
| K2P | 5.22 |
| K2H | 4.98 |
| K2V | 4.52 |
| K2A | 4.57 |
| E11N | 4.86 |
| E11S | 4.41 |
| E11Q | 4.68 |
| E11M | 4.17 |
| E11V | 4.66 |
| E11G | 4.48 |
| E11Y | 4.25 |

| Variant | protein stability index |
| --- | --- |
| E11T | 4.57 |
| E11F | 4.15 |
| E11K | 4.5 |
| E11H | 4.62 |
| E11C | 4.13 |
| E11R | 4.49 |
| E11D | 5.03 |
| E11L | 3.96 |
| E11W | 3.9 |
| E11P | 4.74 |
| E11I | 4.4 |
| M13V | 4.82 |
| M13L | 5.37 |
| M13T | 5.31 |
| M13A | 4.95 |
| M13I | 4.29 |
| M13K | 4.77 |
| M13Y | 3.98 |
| M13R | 5.08 |
| M13S | 5.31 |
| M13E | 5.5 |
| M13Q | 5.26 |
| M13H | 4.65 |
| M13N | 5.21 |

| Variant | protein stability index |
| --- | --- |
| M13P | 4.99 |
| M13G | 5.27 |
| M13C | 5.03 |
| M13W | 2.63 |
| M13F | 4.67 |
| M13D | 5.13 |
| R3F | 4.61 |
| R3L | 4.93 |
| R3E | 5.29 |
| R3N | 5.08 |
| R3S | 4.78 |
| R3Q | 5.48 |
| R3K | 5.06 |
| R3M | 5.04 |
| R3P | 5.26 |
| R3C | 4.91 |
| R3Y | 4.04 |
| R3H | 4.65 |
| R3D | 5.11 |
| R3W | 4.25 |
| R3V | 5.21 |
| R3A | 5.17 |
| R3G | 5.18 |
| R3T | 5.2 |

| Variant | protein stability index |
| --- | --- |
| R3I | 5.16 |
| K5T | 5.16 |
| K5H | 5.12 |
| K5R | 4.62 |
| K5A | 4.38 |
| K5P | 5.34 |
| K5F | 4.8 |
| K5N | 5.25 |
| K5C | 5.05 |
| K5E | 5.26 |
| K5V | 4.96 |
| K5L | 4.68 |
| K5D | 4.75 |
| K5I | 4.76 |
| K5Q | 4.39 |
| K5W | 4.46 |
| K5Y | 4.11 |
| K5S | 4.92 |
| K5G | 4.55 |
| K5M | 4.95 |
| R7I | 4.96 |
| R7C | 4.71 |
| R7E | 5.81 |
| R7H | 5.08 |

| Variant | protein stability index |
| --- | --- |
| R7L | 4.95 |
| R7K | 4.81 |
| R7N | 4.93 |
| R7P | 4.7 |
| R7G | 5.21 |
| R7T | 4.84 |
| R7F | 4.52 |
| R7A | 4.91 |
| R7V | 4.98 |
| R7S | 5.51 |
| R7M | 4.52 |
| R7D | 5.39 |
| R7Y | 4.76 |
| R7W | 4.13 |
| R7Q | 5.25 |
| K1Y | 4.95 |
| K1Q | 5.15 |
| K1A | 4.71 |
| K1E | 5.1 |
| K1G | 4.9 |
| K1S | 5.14 |
| K1M | 4.67 |
| K1I | 4.98 |
| K1P | 5.52 |

| Variant | protein stability index |
| --- | --- |
| K1C | 4.67 |
| K1R | 4.48 |
| K1F | 4.22 |
| K1L | 4.62 |
| K1T | 5.07 |
| K1H | 4.95 |
| K1W | 4.46 |
| K1D | 4.87 |
| K1V | 4.71 |
| K1N | 5.42 |
| E4W | 3.96 |
| E4H | 4.38 |
| E4L | 4.21 |
| E4G | 4.71 |
| E4T | 4.09 |
| E4Y | 4.27 |
| E4K | 4.28 |
| E4S | 4.47 |
| E4N | 4.37 |
| E4F | 4.39 |
| E4I | 4.53 |
| E4V | 4.49 |
| E4P | 4.42 |
| E4A | 5.04 |

| Variant | protein stability index |
| --- | --- |
| E4D | 5.21 |
| E4Q | 4.79 |
| E4R | 4.32 |
| E4M | 4.5 |
| E4C | 4.42 |
| M10V | 4.37 |
| M10Y | 4.61 |
| M10F | 4.15 |
| M10A | 4.92 |
| M10K | 4.71 |
| M10W | 4.7 |
| M10L | 4.07 |
| M10T | 4.69 |
| M10E | 5.14 |
| M10S | 4.89 |
| M10G | 5.19 |
| M10I | 4.7 |
| M10Q | 4.86 |
| M10H | 5.16 |
| M10N | 4.9 |
| M10P | 5.15 |
| M10C | 4.86 |
| M10R | 5.14 |
| M10D | 4.81 |

Variants of: B2
Experiment: as above
Details: c terminus: a fixed tail appended

| Variant | protein stability index |
| --- | --- |
| A19N | 3.34 |
| A19W | 2.3 |
| A19E | 2.96 |
| A19P | 3.78 |
| A19K | 3.34 |
| A19T | 3.5 |
| A19G | 3.39 |
| A19H | 2.9 |
| A19L | 1.97 |
| T22C | 2.75 |
| T22I | 2.48 |
| T22W | 3.11 |
| T22L | 2.11 |
| T22M | 2 |
| T22H | 2.49 |
| T22F | 1.3 |
| T22N | 3.95 |
| T22R | 3.6 |
| T22Y | 2.79 |
| T22G | 2.23 |
| G23K | 3.55 |
| G23F | 2.52 |
| G23N | 2.98 |
| G23L | 2.44 |

| Variant | protein stability index |
| --- | --- |
| G23C | 2.4 |
| G23T | 3.04 |
| G23I | 3.35 |
| G23S | 2.61 |
| G23H | 2.6 |
| G23P | 3.34 |
| G23M | 1.87 |
| G23A | 3.6 |
| G23E | 3.99 |
| R20Y | 2.34 |
| R20P | 3.31 |
| R20M | 3.12 |
| R20H | 2.77 |
| R20C | 1.86 |
| R20T | 3.14 |
| R20N | 3.55 |
| R20E | 4.02 |
| R20K | 3.19 |
| R20Q | 3.32 |
| R20L | 1.85 |
| R20F | 2.36 |
| R20S | 4.23 |
| G21S | 2.68 |
| G21Y | 2.42 |

| Variant | protein stability index |
| --- | --- |
| G21I | 1.61 |
| G21M | 1.96 |
| G21E | 2.05 |
| G21Q | 2.78 |
| G21K | 3.71 |
| G21C | 1.6 |
| G21N | 2.83 |
| G21W | 1.68 |
| G21V | 2.09 |
| G21P | 2.33 |
| G21T | 2.08 |
| S24M | 1.76 |
| S24E | 4.04 |
| S24T | 2.71 |
| S24W | 2.11 |
| S24H | 2.03 |
| S24Y | 2.12 |
| S24D | 2.59 |
| S24V | 3.15 |
| S24N | 3.26 |
| S24Q | 2.61 |
| S24R | 2.36 |
